The values below come from patent US9096654B2, “Peptides capable of modulating the function of TIRC7” (CELLACT PHARMA GMBH, priority 2005, dated 2015).

One test deals with PBMC. Description: Mixed lymphocyte reaction (MLR): inhibition of proliferation of stimulated PBMC by TIRC7 derived peptides. Conditions: mitomycin-inactivated PBMC (stimulator), CFSE-stained PBMC (responder), 6 days incubation with peptide in PBS, pH 7.3. It is filed as cell-based. As for the experimental part:
As described in Example 1 herein, peptides were tested for their ability to inhibit proliferation of mitomycin-stimulated PBMCs.
Freshly isolated PBMC were inactivated with mitomycin (stimulator), or stained with CFSE (responder). Cells were incubated for 6 days with the peptides as described in FIG. 1, dissolved in PBS and titrated to pH 7.3. Subsequently, an in vitro assay, mixed lymphocyte reaction (MLR), was performed essentially as described in international applications WO99/11782 and WO03/025000 to analyze the potency of the tested TIRC7 derived peptides to inhibit the immune response. For all peptides shown in FIG. 1 substantial inhibition of proliferation could be observed.

The test system of a further test is activated T-cells. Conditions: dose dependent, cited from earlier work.

For “D46M: synthetic peptide derived from the third extracellular domain of TIRC7 protein (SEQ ID NO: 3, FIG. 1) (DRQEENKAGLLDLPDASVNGWSSDEEKAGGLDDEEEAELVPSEVLM; TIRC7 peptide)”, in the test on PBMC, the inhibition of proliferation result is reported as “Particular advantageous”.

B1: TIRC7: in vitro translated T-cell immune response cDNA 7 protein, involved in signal transduction of T-cell activation and/or proliferation (protein, UniProt Q13488 1-830, looked up)
V-type proton ATPase 116 kDa …: MGSMFRSEEVALVQLFLPTAAAYTCVSRLGELGLVEFRDLNASVSAFQRRFVVDVRRCEELEKTFTFLQEEVRRAGLVLPPPKGRLPAPPPRDLLRIQEETERLAQELRDVRGNQQALRAQLHQLQLHAAVLRQGHEPQLAAAHTDGASERTPLLQAPGGPHQDLRVNFVAGAVEPHKAPALERLLWRACRGFLIASFRELEQPLEHPVTGEPATWMTFLISYWGEQIGQKIRKITDCFHCHVFPFLQQEEARLGALQQLQQQSQELQEVLGETERFLSQVLGRVLQLLPPGQVQVHKMKAVYLALNQCSVSTTHKCLIAEAWCSVRDLPALQEALRDSSMEEGVSAVAHRIPCRDMPPTLIRTNRFTASFQGIVDAYGVGRYQEVNPAPYTIITFPFLFAVMFGDVGHGLLMFLFALAMVLAENRPAVKAAQNEIWQTFFRGRYLLLLMGLFSIYTGFIYNECFSRATSIFPSGWSVAAMANQSGWSDAFLAQHTMLTLDPNVTGVFLGPYPFGIDPIWSLAANHLSFLNSFKMKMSVILGVVHMAFGVVLGVFNHVHFGQRHRLLLETLPELTFLLGLFGYLVFLVIYKWLCVWAARAASAPSILIHFINMFLFSHSPSNRLLYPRQEVVQATLVVLALAMVPILLLGTPLHLLHRHRRRLRRRPADRQEENKAGLLDLPDASVNGWSSDEEKAGGLDDEEEAELVPSEVLMHQAIHTIEFCLGCVSNTASYLRLWALSLAHAQLSEVLWAMVMRIGLGLGREVGVAAVVLVPIFAAFAVMTVAILLVMEGLSAFLHALRLHWVEFQNKFYSGTGYKLSPFTFAATDD
modifications: TIRC7 in vitro translated
Turning to B1, in the test on activated T-cells (MLR), the “suppression of proliferation of activated T-cells in MLR” value is on record as “significantly suppressed”. For the same molecule, in the test with activated T-cells (in response to alloactivation in a mixed lymphocyte culture or in response to mitogens), the “suppression of proliferation of T-cells” value is reported as “efficiently suppress”.

B2: A61V: synthetic peptide derived from the third extracellular domain of TIRC7 protein (SEQ ID NO: 4, FIG. 1) (peptide)
chain: ADRQEENKAGLLDLPDASVNGWSSDEEKAGGLDDEEEAELVPSEVLMHQAIHTIEFCLGCV
modifications: TIRC7 peptide
For the molecule B2, in the test on PBMC, the inhibition of proliferation result is given as “Particular advantageous”.
